Test: yeast display, Sf9 membrane polyspecificity reagent, FACS + sequencing; frameworks hold sequencing errors
How it was run: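 Nanobodies from a synthetic yeast display library (Saccharomyces cerevisiae BJ5465), induced 36–48 hours with galactose, were stained 1 hour at 4 °C with 10% biotinylated, detergent-solubilized Sf9 membrane reagent, enriched on streptavidin microbeads, then FACS-sorted. Anti-HA (expression) and streptavidin (reagent binding) fluorescence set low and high (top ~1%) gates. Polyreactivity labels come from the gate of origin. Genes were colony-PCR amplified, MiSeq 2 × 250 sequenced and filtered by CDR length.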

Sequence | polyreactivity (PSR sort gate)
QVQLVESGGGLVQAGGSLRLSCAASGRISVNYAMGWYRQAPGKERELVAGITSRGGSTYYADSVKGRFTISRDNAKNTVYLQMNSLKPEDTAVYYCAARWGGLWYYYWGQGTQVTVSS | high polyreactivity
QVQLVESGGGLVQAGGSLRLSCAASGRIFHYNDMGWYRQAPWKERELVAAISTGGSTNYADSVKGRFTISRDNAKNTVYLQMNSLKPEDTAVYYCAADHPGTYPTTKFDYWGQGTQVTVSS | low polyreactivity
QVQLVESGGGLVQAGGSLRLSCAPSGITFRSYAMGWYRQAPGKERELVATISWSGGITYYADSVKGRFTISRDNAKNTVYLQMNSLKPEDTAVYYCATASQSWGRDDYYYWGQGTQVTVSS | low polyreactivity
QVQLVESGGGLVQAGGILRLSCAASGSIFRPYAMGWYRQAPGKERELVAAIRWSTRNTYYADSVKGRFTISRDNAKNTVYLQMNSLKPEDTAVYYCAAAYWPVVWFYYWGQGTQVTVSS | low polyreactivity
QVQLEESGGGLVQAGGSLRLSCAASGYTFYYYAMGWYRQAPGKERELVAAISRSGGSTYYADSVKGRFTISRDNAKNTVSLQMNSLKQEDTAVYYCAARRLVGAERPGYDYWGQGTQVTVSS | high polyreactivity
QVQLVESGGGLVQAGGSLRLSCAASGGISLRYAMGWYRQAPGKERELVAVIDFSGASTYYADSVKGRFTISRDNAKNTVYLQMNSLKPEDTAVYYCAADSHYQDDFRIQYDYWGQGTQVTVSS | low polyreactivity
QVQLVESGGGLVQAGGSLRLSCAASGSTFHPNAMGWCRQAPRKQRELFAAITWSTSVTYYADSVKGRFTISRDNAKNTVFLQMISLKPEDSAVYYCNAGYMLDSFRYDHWGQCTQVTVSS | low polyreactivity
QVQLVESRGGLVHAGGSLGLSCAASGSTFGVNAMGWYRQAPGKERELVASISSGGGTYYADSVKGRFTISRDNSKNTVYLQMNSLKPEDTAVYYCAAVYYWYDSYAGYDYWGQGTQVTVSS | low polyreactivity
QVQLVESGGGLVQAGGSLRLRCAASGIIFEYYAMGWYRQAPGKERELVAAITWNGGRTYYADSVKGRFTISRDNAKNTVYLQINSLKPEDTAVYYCAALTYYRDYWGLGTQVTVSS | high polyreactivity
QVQLVESGGGLVQAGGSLRLSCAASGSTFVSSAMGWYRQAPGKERELVARITWNGGNTYADSVKGRFTISRDNAKNTVYLQMNSLKPEDTAVYYCSTDYVVGFYYWGQGTQVTVSS | low polyreactivity
QVQLVESGGGLVQAGGSLRLSCAASGRIFRDNAMGWYRQAPGKERELVAAISRRGGSTYYADSVKGRFTISRDNAKNTVYLQMNSLKPEDTAVYYCNKTTQSRTFRYDYWGQGTQVTVSS | low polyreactivity
QVQLVESGGGLVQAGGSLRLSCAASGFTFNRYAMGWYRQAPGKERELVASITTGGRTNYADSVKGRFTISRDNAKNTVYLQMNSLKPEDTAVYYCAADYGYFYRYYYWGQGTQVTVSS | high polyreactivity
QVQLEESGGGLVQAGGSLRLSCAASGFTFVDYVMGWYRQAPGKERELVAAISRRAGRTYYADSVKGRFTNSRDNAKNTVYFQMNSLKREDTAVYSCAAYLSRSYYAYDYWGQGTQVTVSS | high polyreactivity
QVQLVESGGGLVQAGGSLRLSCADSGRNFYYYAMGWYRQAPGKERELVAAITSGGRTNYADSVKGRFTISRDNAKNNVYLQMNSLKPEDTAVYYGAATSKYKVRYSRYYYWGQGTQVTVSS | high polyreactivity
QVQLVESGGGLVQAGGSLRLSCAASGRILKYYDMGWYRQAPGKETELVAAISVSGTSTYYADSVKGRFTISRDNAKNTVYLQMNSLKPEDTAVYYCATATGRYSFDYWGKGTQVTVSS | low polyreactivity
QVQLVESGGGLVQAGGSLRLSCAASGTFYRYAMGWYRQAPGKERELVAAIDKTGDTTYYADSVKGRFTISRDNAKNTVYLQMNSLKPEDTAVYYCAATGYPRFGYWGQGTQVTVSS | high polyreactivity
QVQLVESGGGLVQAGGSLRLSCAASGRIFADYAMGWNRHAPGKQRELVAAITWSGDRTYYADSVKGRFTISRDNAKNTVYLQMNSLKPEDTAVYYCAARARLRRYNYWGQGTQVTVSS | high polyreactivity
QVQLVESGGCLVQAGGSLRLSCAASGFTFIRYAMGWYRQAPGKERELVAAITVSGTRTYYADSVKGRFTISRDNAKNTVYLQMNSLKPEDTAVYYCNARDVYTGYGMGYWGQGSQVTVSS | high polyreactivity
QVQLVESGGGLVQAGGSLRLSCAASGSIFVNNAMVWYRQAPGKERELVAAISSRGGSTYYADSVKGRFTISRDNAKNTVYLQMNSLKPEDTAVYYCAAAGYGKVRGDYWGQGTQVTVSS | low polyreactivity
QVQLVESGGGLVQAGGSLRLSCAASGRIFRYNAMVWYRQAPGKERELVAAITWSGTSTYYADSLKGRFTLSRDNAKNTVYLHMNSLKPEDTAVYYCNADRVDRELFTFDYWGQGTQVTVSS | high polyreactivity
QVQLVESGGGLGQAGGSLRLSCAASGRIFGGYTMGWYRQAPGKEREFVDTISRSSGSTYYADSVKGRFTISRDHAKNTVYLQMNSLKPEDTAVYYCAAVYLYATGYDYWGQCTQVTVSS | high polyreactivity
QVQLVESGGGLVQAGGSLRLSCAASGGTFKYYTMGWYRQAPGKERELVAAISSGGITYYADSVKGRFTISRDNAKNTVYLQMNSLKPEDTAVYYCNVVSYYIAGGWYEGDYWGQGTQVTVSS | low polyreactivity

Sequence | polyreactivity (PSR sort gate)
QVQLVESGGGLVQAGGSLRLSCAASGFIFHNYAMGWSRQAPGKERELVAAISWSGSRTYYADSVKGRFTISRDNAKNTVYLQMNSLKPEDTAVYYCNAPGSPVVQQPGYYWGQGTQVTVSS | low polyreactivity
QVQLHESGGGLVQAGGSLRLSCAASGTISYAGPMGWYRQAPGKEREFVAGIGVGSNTNYADSVKGRYTIIRDNAKNTVYLQMNSLKPVDTAVYYCAVGGYAPLGRPYWGQGTQVTVSS | low polyreactivity
QVQLVESGGGLVQAGGSLRLSCAASGSTFVYYAMGWYRQAPGKERELVAAISWSGTRTYYADSVKGRFTISRDNAKNTVYLQMNSLKPEDTAVYYCAARLRANQVKLYYWGQGTQVTVSS | high polyreactivity
QVQVVESGGGLVQAVGSLRLSCAASGSTLSDNAMGWYRQAPGKERELFAAISESGGSTYYADSVKGRFTISRDNAKNTVYLQMNSQKPEDTAVSYCNAVYLSGPFHVSHDYWGQGTQVTVSA | low polyreactivity
QFQLVESVGGLVQAGGSLRLSLASSGSIFGPNTMGWYRQAPGKERELVAAIRGGGSTNYADSVKGRFTISRDNAKNTVYLQMNSLKPEDTAVYYCNATWNLFPGFLDRYDYWGQGTQVTVSS | low polyreactivity
QVQLVESGGGLVQAGGSLRLSCAASGRTFTYYTMGWYRQAPGKERELVAAITWSGGRTYYADSVKGRFTISRDNAKNTVYLQMNSLKPEDTAVYYCAKPPQGTYDYWGQGTQVTVSS | low polyreactivity
QVQLVESGGGLFQAGGSLRLTCAASGFTFSYNAMGWYRQAPGKERELVAAISSSGGSTYYADSVKVRFTISRENAKNTVYLPMNSLKPVDTAVYYCAVPYLTLYGRTYDYWGQGTLVTVSS | high polyreactivity
QVQLVDSGGGLFQAGGSLRLSCAASGSTFYRYAKGWYRQAPGKERELVATITNSGGSTYYADSVKGRFTISRDNAKNTVYLPRNSLKPEDTAVYYCAAVGGRLRGDRGGYWGQGSQVTVSS | high polyreactivity
QVQLVESGGGLVQAGGSLRLSCAASGFTFTAYARGWYRQAPGKERELVAAINWSGSRTSYADSVKGRFTISRDNAKNTVYLQMNSLKPEDTAVYYCNPATSKSSYRHYDYWGQGTQVTVSS | high polyreactivity
QVQLVESGGGLVQAGGSLRLSCAASGSTFVDNAMGWYRQAPGKERELVAAISRGGSTHYADSVKGRFTISRDNAKNTVYLQMNSLKPEDTAVYYCNKDTKRLLWFYKYYYWGQGTQVTVSS | high polyreactivity
QVQLVESGGGLVQAGGSLRLSCADSGFTFILYAMGWYRQAPGKERELVAAITTSGGRTYYADSVKGRFTISRDNAKNTVYLQMNSLKPEDTAVYYCAAKEYYTPYRRGYWGQGTQVTVSS | high polyreactivity
QVQLVDSGGGLVQEVGSLRLSCAASGSTFPFNAMGWYRQAPGKERELVATISGRGGSTYYADSVKGRFTISRDNAKNTVYLQMNSLKPEDTAVYYCAAEIHDRFDSWGQGTQVTVSS | low polyreactivity
QVQLVESGGGLDQAGGSLRLSCAASGSTFQPYAMGRYRQAPGKEREFVATISGSAGSTYYADSVKGRFKISRDNANYTVYLQMNSLKPEDTAVYYCNADSGWFGYDYWGQGNQVTVSS | low polyreactivity
QVQLVESGGGIVQAGGSLPLSCAASGIIFSVNAMGWYRQAPGKERELVAAITYSGGSTYYADSVKGRYTISRDNAKNTVYLQMNSLKPEVTAVYYCAAETYSSGEWYDYWGQGTQVTVSS | high polyreactivity
QVQLVESGGGLVQAGGSHRLSCAATGNTFHTNAIGWYRQAPGKERELVAAITGGGSTYYADSVKGRFTISRDNAKNTVYLQMNSLKPEDTAVYYCNTDVPYGLDVSDTIDYYYWGQGTQVTVSS | low polyreactivity
QVQLVESGGRLVQAGGSLSLSCAASGSIFYRNAMGWYSQAPAKEWEFVAVITSSGTSTYYADSVKGRFTISRDNEKNTVSFQMKSLKPEDTAVYYCAADESSPSRGDYWGQGTQVSVSS | low polyreactivity
QVQLVESGGGLVQAGGSLRLSCAASGSILAVNAMGWYRQAPGKERELVAAISSRGGSTSYADSVKGRFTISRDNAKNTVYLQMNSLKPEDTAVYYCAVRAVRRLRTSVPVRFYYWGQGTQVTVSS | high polyreactivity
QVQLVDSGGGLVQAGGSLRLSCAASGRIFYQYAMGWYRQAPGKERELVAGISKRGGSTYYADSVKGRFTISRDNAKNTVYLQMNSLKPEDTAVYYCARGGYPGSAEYDYWGQATQVTVSS | high polyreactivity
QFQLVESGGGLVQAGGSLRLSCAASGSIFPGYAMGWYRQAPGKERELVAAITVSGVSTYYADSVKGRFTISRDNEKNTVYLQMNSLKPEDTAVYYCARDNWQLYPSTWYDYWGQGTQVNVSS | high polyreactivity
QVQLVESGGGLVQAGGSLRLSCAASGSIFVYYTMGWYRQSPGKEREMVAAITYSGGSKYYADSVKGRFTISRDNAKNTVYLQMNRLKPEDTAVYYCNAKSAAHRYVRRHDYWGQGTQVTVSW | low polyreactivity
QVQLVESGGGLVQAGGSLRLSCASSGSIFYVYAMGWYRQAPGKERELVATIDWSGGSTYYADSVKGRFTISRDNAKNTVYLQMNSLKPEDTAVYYCAAYGLYGYRRRYRVSFTPYDYWGQGTQVNVSS | low polyreactivity

From the nanobody polyreactivity screen of Harvey et al. (2022)
